“And” between values parts separate entries of the source, which are not always exact repeats. Identical values can stand only once.

For this test, the target named is uPAR-tagged soluble human GPIHBP1-S107C (human) (UniProt Q8IV16). As to the kind of experiment: density gradient ultracentrifugation.

As for “uPAR-tagged soluble human GPIHBP1-S107C (from UniProt Q8IV16 21-151) (domain or fragment)”, the stoichiometry N is 2 and 3.
